Reference: the nanobody polyreactivity screen of Harvey et al. (2022)

Assay: yeast display, Sf9 membrane polyspecificity reagent, FACS + sequencing; frameworks hold sequencing errors
Method in brief: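 After 36–48 hours of galactose induction, yeast (Saccharomyces cerevisiae BJ5465) displaying a synthetic nanobody library were stained at 4 °C for 1 hour with 10% biotinylated, detergent-solubilized Sf9 membrane reagent. Streptavidin microbeads enriched the stained cells before FACS sorting into low and high (top ~1%) gates on anti-HA and streptavidin fluorescence. Each clone's polyreactivity label reflects its gate of origin.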

Sequence | polyreactivity (PSR sort gate)
QDQLVESGGGLVQAGGSLRLSCAASGSTFVKYAMGWYRQAPGKERELVAAITKGGGSTYYADSVKGRFTISRDNAKNTVYLQMNSLKPEDTAVYYCNTSPHYRYGMDYWGQGTQVTVSS | high polyreactivity
QDQLVESGGGLVQAGGSLRLSCAASGSTFWANAMGWYRQAPGKEWELDARITYSGGSTYYADSVKGRFTISRDYAKNTVYLQMNSLKPEDTAVYYCAAEHYLCYDYWGQGTQVTVSS | low polyreactivity
QDQLVESGGGLVQAGGSLRLSCAASGSTFYNYAMAWYRQAPGKEREFVAAISSGGGITYYADSVKGRFTISRDNAKNTVFLQMISLIPEDTAVYYCNAKMISGISTADSRSRIYDYWGHGTQVTVSS | high polyreactivity
QDQLVESGGGLVQAGGSLRLSCAASGSTLAGYAMGWYRLAPGKVRELVAAIDWTGGSTTYADSVKGRFTISRDNAKNTVYLQMNSLKPEDTAVYYCNVDLGVNGDYWGQGTQVTVSS | low polyreactivity
QDQLVESGGGLVQAGGSLRLSCAASGSTLDGNAMGWYRQAPGKERELVAGIDTGGSTYYADSVKGRFTISRDNAKNTVYLQMNSLKPEDTAVYYCAATDREDYDYWGQGTQVTVSS | low polyreactivity
QDQLVESGGGLVQAGGSLRLSCAASGSTLEYKAIGRYRQAPGQERELVAVINRSDGSTYYADSVKGRFTISRDNAKNTVYLQMNSLKPEDTEVYYCADDRHQVSGISTEDYWGQGTQVTVSS | low polyreactivity
QDQLVESGGGLVQAGGSLRLSCAASGSTLFYAMGWYRQAPGKERELVAAISWSGGSTRYADSVKGRFTISRDNAKNTVYLQMNSLKPEDTAVYYCNRDPDTWGYQPDWYYGAYDYWGQGTQVTVSS | low polyreactivity
QDQLVESGGGLVQAGGSLRLSCAASGSTLTRNAMGWYRQAPGKERELVAAITSGGRTKYADSVKGRFTISRDNAKNTVYLQMNSLKPEDTAVYYCAKGGPPGQRGYDYWGQGTQVTVSS | high polyreactivity
QDQLVESGGGLVQAGGSLRLSCAASGSTRIYAMGWYRRAPRKEMELVAAISWTGGRTYYADSVKGRFTISRDNAKIIVYLQMNSLKPEYTAVYYCAAQYFTFYWKLDYWGQGTQVTVSS | high polyreactivity
QDQLVESGGGLVQAGGSLRLSCAASGSTSRTYAMGWYRQAPGKERELVAAINSGGTTYYADSVKGRFTISRDNAKNTVYLQMNSLKPEDTAVYYCARRDFWWSLRIFGYWGQGTQVTVSS | high polyreactivity
QDQLVESGGGLVQAGGSLRLSCAASGSTVSYYTMGWYRQAPGKERELVAAINGSGGSTYYADSVKGRFTISRDNAKNNVYLQMNSMKPEDTAVYYCAADIKRVLDIPMYYWGQGTQVTVSS | low polyreactivity
QDQLVESGGGLVQAGGSLRLSCAASGYIFGIYAMGWYRQAPGKERELVAAISSDSTYYADSVKGRFTISRDNAKNTVYLQMNRQKPEDTAVYYCAAYWFNQDYEFEYWGHGTQVTVSS | high polyreactivity
QDQLVESGGGLVQAGGSLRLSCAASGYIFRIYAMGWYRQAPGKERELVATITNGGSTHYADSVKGRFTISRDNAKNTVYLQMNSLKPEDTAVYYCAADLLYSEYDYWGQGTQVTVSS | high polyreactivity
QDQLVESGGGLVQAGGSLRLSCAASGYTFRYYAMGWYRQAPGKERELVARITGRAGSTYYADSVKGRFTISRDNAKNTVYLQMNSLKPEDTAVYYCAASIREGFYWGQGTQVTVSS | high polyreactivity
QDQLVESGGGLVQAGGSLRLSCAASVFTFRYYAMGWYRQAPGKEREFVATISWSGGSTYYADSVKGRFTISRDNAKNTVYLQMNSLKPEDTAVYYCAAGRVGTTTLEFYYCGQGTQVTVSS | high polyreactivity
QDQLVESGGGLVQAGGSLRLSCAASVRTCNSYAMGWYRQAPGKERELVADITSSGGSTYYADSVKGRVTISRDNAKNTVYVQMNSLKPEDTAVYYCAADGYTRLPTYLRVTHRSLDYCGQGTQVTVSS | low polyreactivity
QDQLVESGGGLVQAGGSLRLSCAASVSIFGVNVMGWYRQAPGKERELVAAITSIGGRTYYADSVKGRFTISRDNAKITVYLQMNSLKPEETAVYYCNADYTGAEYDYWGQGTQVTVSS | low polyreactivity
QDQLVESGGGLVQAGGSLRLSCAASYYAMGWYRQAPGKERELVASISSGGSTNYADSVKGRFTISRDNAKNTVYLQMNSLKPDDTAVYYCAAQYYATYGYWGQGTQVTVSS | low polyreactivity
QDQLVESGGGLVQAGGSLRLSCADSGYTFTSNDMGWYRQAPGKERELVAAITWSGGTTYYADSVKGRFTISRDNAKNNVYLQMNSLKPDDTAVYYCAAESTLPIIDRDDYWGQGTQVTVSS | low polyreactivity
QDQLVESGGGLVQAGGSLRLSCAGCAYIFGRYAMGWYRQAPGKEMELVAAITQRGGRTYYPDSVKGRFTISRDNAKNTVYLQMNSLKPEDTAVYYCAALLYFFLYDYWGQGTQVTVSS | low polyreactivity
QDQLVESGGGLVQAGGSLRLSCAGSGSILDGNAMLWYRQAPGKERELVAGISGDSGSTYYADSVKGRFTISRDNAKNTVYLQMNSLKPEDTAVDYCAVTWGARTDQWPLRVFVGHDYWGQGTQLTVSS | low polyreactivity
QDQLVESGGGLVQAGGSLRLSCDASGFILETNAMGWYRQAPGKERELVASITSSGSTYYADSVKGRFTISRDNAKNTVYLQMNSLKREVTAVYYCAARRYRSRGRTYGWFRYDYWGQGTQVTVSS | high polyreactivity

Sequence | polyreactivity (PSR sort gate)
QDQLVESGGGLVQAGGSLRLSCDASGSIFPIYAMGWYRQAPGKERELVAAINRSGGSTYYADSVKGRFTISRDNAKNTVYLQMNSLKPEDTAVYYCKADYGYHNQLFWGYYGWSSDHWGQGTQVTVSS | low polyreactivity
QDQLVESGGGLVQAGGSLRLTCAASGSTFTLYVMGWYRQAPGKARELVAAISRGDTTNYADSVKGRFTISRDNAKNTVYLQMNSLKPEDTAVYYCAATYPTFFYWSKVYERDYWGQGTQVTVSS | low polyreactivity
QDQLVESGGGLVQAGGSLRLTSAASGFKFEKNAMGWYRQSPGKERQLVARISRSGGSTYYADSVKGRFTISRDNAKNTVYLQMNSLKPEDTADYYCNCLHRSDSGYYYRYDYWGQGTQVTVSS | high polyreactivity
QDQLVESGGGLVQAGGSLRVSCAASGSIFAWYAMGWYRQAPGKDRELVAVITRGGSTNYADSVKGRFTISRDNAKKTVYLQMNSLKPEDTAVYYCAAGSYYSWYPFDYWGQGTQVTVSS | low polyreactivity
QDQLVESGGGLVQAGGSLRVSCAASGSVFLVNAMGWYRQAPGKERELVAIDGSGGSTYADSVKGRFTISRDNAKNTVYLQMNILKPEDTAVYYCAKDQEGPLYDYWGQGTQVTVSS | low polyreactivity
QDQLVESGGGLVQAGGSLSLCCAASGFTFKLYAMGWYRQAAGKVREVVAAISSSGGRTYYADSVKGRFTISRDNAKNTVYLQMNSLKPEDTAVYYCNAVRTVNDYHYDYSGQGTQVTVSS | high polyreactivity
QDQLVESGGGLVQAGGSLSLSCAASGRIFRGNAMGWYRQAPGKERELVASITWRGTSTYYADSVKGRFTISRDNAKNTVYLQMNSLKPEDTAVYYCAASLYSWGQGTEVTVSS | high polyreactivity
QDQLVESGGGLVQAGGTLRLSCAASGRIFKSYAMGWYRQAPGKEREVVASISYTGGSTYYADSVKGRFTISRDNAKNTVYLEMNSLNPEDTAVYYFAAKRVRSAGSYGYWGQVTQVTVSS | low polyreactivity
QDQLVESGGGLVQAGGTLRLSCAASGYTFDTYALGWYRQAPGKERELVAAISYTGGSTYYADSVKGRFTISRDNAKNTVYLQMNSLKPEDTAVYYCAADFNGYPGGDLYVGYDYWGLGTQVTVSS | low polyreactivity
QDQLVESGGGLVQAGRSLRLSCAASGRIFYYNAMGWYRQAPGKERELVAAISYTDDSTYADSVKGRFTISRDNAKNTVYLQLNSLKPEDTAVYYCAADAVAYIYGYDYDYWGQGTQVTVSS | low polyreactivity
QDQLVESGGGLVQAGVSLRISCAASGFTFRGNAMGWYRQAPGKERELVAAITSSDDSTYYADSVKGRFTNSRDNAKNTVYLQMNSLKPEDTAVYYCAAVANGYWTYEYWGQGTQVTVSS | low polyreactivity
QDQLVESGGGLVQAGVSLRLSCAASGLTFPQYVMGWYRQAPGKQRELDASISSSGGNTYYADSVKGRFTISRDNAKNTVYLQMISLKPEDTAVYYCAAEYIFHYYDIFDYWGQGTQVTVSS | high polyreactivity
QDQLVESGGGLVQARGRQRLSCAATGSTFYRNALGWYRQAPGKEREFVAAISFRGGGTYADSVKGRFTISRDNAKNTVYLQMNSLKPEDTAVYYFGADHLSYRRRYEYWGQGTQVTVSS | low polyreactivity
QDQLVESGGGLVQARGSLRLSCAASGRIIKTNAMGWYRQAPGKERELVAAISSSGGRTYYADSVKGRFTISRDNAKNTVYLQMNSLKPEDTAVYYCAAPSLVSFGYWGQGTQVTVSS | high polyreactivity
QDQLVESGGGLVQEGGSLRLSCAASGNIFNRYGMGWYRQAPGKEREFVAAISSGGGSTYYADSVKGRFTISRDNAKNTVYLQINRLKPEDTAVYYCAAGYSSLRRVGVYYWRQGTQVTVSS | high polyreactivity
QDQLVESGGGLVQEGGSLRLSCAASGSTFKNYALGWYRQAPGTERELVAASNVSRARTYYADSVKGRFTLSRDNAKNRVYFQMNSLIPEDTAFYYCAAYYSGVGFDYWGQGTHVTVSS | high polyreactivity
QDQLVESGGGLVQEGGSLRLSCAAYGSIYRYAMGWNRPAPGKERELVAAINFNGGRTYYADSVNGRFTISRDNAKNTVYLQMTSLKPEDTAVYYCAARISVYSTLPNDFDYWGQGTQVTVSS | high polyreactivity
QDQLVESGGRIVQAGGSLRLSCASSGRTFYTYAMGWYRKAPGKERELVAAISSSGSTYYADSVKGRFTISRDNAKNTVYLQMNSLKPEDTALYDCNARTSRYRRGGDSWGQGTQVTVSS | high polyreactivity
QDQLVESGGRLVQAGGSLRLSCAASGRIFSSYALGWYRQAPGKERELVAAIRSSGDRTYYADSVKGRFTISRDNAKITVYLQMNILKPEETAVYFCASRTYLYFGRYDYWGQGTQVTVSS | high polyreactivity
QDQLVESGGVLVQAGGSLRLSCAASGFIFNRYAMGWYRQAPWKERELVAANTRTGSTNYADSVKGRFTISRYNAKYTVYLQMSCLKPEDTAVFYCAAVYLSLGRPYYTFEYWGQGTQVTVSS | high polyreactivity
QDQLVESGGVLVQAGGSLRLSCADSGFSFANYVMGWYRQAPGKERELFAAITTPGGSTSYADSVKGRFTISRDNAKTNVYLQMPSLKPEDTAVYFCKKTTYYPSDYDYWGQGTQVTVSS | low polyreactivity
